Reference: PMC6901024 (Journal of the American Chemical Society, 2019)

Molecular target: the molecule itself
Assay: SEC

B1: His6-FtmOx1-Y140F (enzyme)
chain: MTVDSKPQLQRLAADADVDRMCRLLEEDGAFILKGLLPFDVVESFNRELDVQMAIPPPKGERLLADKYPPHFKYVPNVATTCPTFRNTVLINPVIHAICEAYFQRTGDYWLSAAFLREIESGMPAQPFHRDDATHPLMHFQPLEAPPVSLSVIFPLTEFTEENGATEVILGSHRWTEVGTPERDQAVLATMDPGDVLIVRQRVVHAGGGNRTTAGKPRRVVLAYFNSVQLTPFETYRTMPREMVESMTVLGQRMLGWRTMKPSDPNIVGINLIDDKRLENVLQLKAADSPA
For B1, the “stoichiometry N” value was 2.
